# Laboratory results reported in patent US20100183625A1, “Treatment of Mucositis with Kallikrein Inhibitors” (Dyax Corp., priority 2009, published 2010).
# Changes are numbered by the printed parent chain.
# B1: X66-G08: single point mutation of M142-H08 (P1); HV-CDR3 GGLLLWFYELKSNYFDY (antibody, V domains shown)
# VL: QDIQMTQSPSSLSAFVGDRVTITCRASQPIDNYLNWYHQKPGKAPKLLIYAASRLQSGVPSRLSGSGFGTDFTLTISSLQPEDFGNYYCQQSYTVPYTFGGGTKVEIR
# VH: EVQLLESGGGLVQPGGSLRLSCAASGFTFSAYSMIWVRQAPGKGLEWVSYIRPSGGRTTYADSVKGRFTISRDNSKNTLYLQMNSLRAEDTAVYYCARGGLLLWFYELKSNYFDYWGQGTLVTVSSASTKGPSVFPLAPSSKS
# B2: X68-G01: single point mutation of M142-H08 (P3); HV-CDR3 GGLLLRFRELKSNYFDY (antibody, V domains shown)
# VL: B1 VL
# VH: B1 VH with W104R, Y106R
# B3: X69-F09: single point mutation of M142-H08 (P1′); HV-CDR3 GGLLLWFRSLKSNYFDY (antibody, V domains shown)
# VL: B1 VL
# VH: B1 VH with G42S, Y106R, E107S
# B4: X68-F10: single point mutation of M142-H08 (P3); HV-CDR3 GGLLLQFRELKSNYFDY (antibody, V domains shown)
# VL: B1 VL
# VH: B1 VH with W104Q, Y106R
# B5: X69-A09: single point mutation of M142-H08 (P1′); HV-CDR3 … (antibody, V domains shown)
# VL: B1 VL
# VH: B1 VH with Y106R, E107S
# B6: X69-A12: single point mutation of M142-H08 (P1′); HV-CDR3 GGLLLWFRKLKSNYFDY (antibody, V domains shown)
# VL: B1 VL
# VH: B1 VH with Y106R, E107K
# B7: X69-C12: single point mutation of M142-H08 (P1′); HV-CDR3 GGLLLWFRVLKSNYFDY (antibody, V domains shown)
# VL: B1 VL
# VH: B1 VH with Y106R, E107V
# B8: X69-D08: single point mutation of M142-H08 (P1′); HV-CDR3 GGLLLWFRALKSNYFDY (antibody, V domains shown)
# VL: B1 VL
# VH: B1 VH with Y106R, E107A
# B9: X69-A10: single point mutation of M142-H08 (P1′); HV-CDR3 GGLLLWFRPLKSNYFDY (antibody, V domains shown)
# VL: B1 VL
# VH: B1 VH with Y106R, E107P
# B10: X68-A03: single point mutation of M142-H08 (P3); HV-CDR3 GGLLLDFRELKSNYFDY (antibody, V domains shown)
# VL: B1 VL with G85S
# VH: B1 VH with W104D, Y106R
# B11: X68-D10: single point mutation of M142-H08 (P3); HV-CDR3 GGLLLPFRELKSNYFDY (antibody, V domains shown)
# VL: B1 VL
# VH: B1 VH with W104P, Y106R
# B12: X69-E05: single point mutation of M142-H08 (P1′); HV-CDR3 GGLLLWFRRLKSNYFDY (antibody, V domains shown)
# VL: B1 VL
# VH: B1 VH with Y106R, E107R
# B13: X69-B08: single point mutation of M142-H08 (P1′); HV-CDR3 GGLLLWFRNLKSNYFDY (antibody, V domains shown)
# VL: B1 VL
# VH: B1 VH with Y106R, E107N
# B14: X69-E01: single point mutation of M142-H08 (P1′); HV-CDR3 GGLLLWFRWLKSNYFDY (antibody, V domains shown)
# VL: B1 VL
# VH: B1 VH with Y106R, E107W
# B15: X68-A12: single point mutation of M142-H08 (P3); HV-CDR3 GGLLLGFRELKSNYFDY (antibody, V domains shown)
# VL: B1 VL
# VH: B1 VH with W104G, Y106R
# B16: X68-H04: single point mutation of M142-H08 (P3); HV-CDR3 GGLLLVFRELKSNYFDY (antibody, V domains shown)
# VL: B1 VL
# VH: B1 VH with W104V, Y106R
# B17: X68-F05: single point mutation of M142-H08 (P3); HV-CDR3 GGLLLMFRELKSNYFDY (antibody, V domains shown)
# VL: B1 VL
# VH: B1 VH with W104M, Y106R
# B18: X69-F05: single point mutation of M142-H08 (P1′); HV-CDR3 GGLLLWFRLLKSNYFDY (antibody, V domains shown)
# VL: B1 VL
# VH: B1 VH with Y106R, E107L
# B19: X69-D02: single point mutation of M142-H08 (P1′); HV-CDR3 GGLLLWFRHLKSNYFDY (antibody, V domains shown)
# VL: B1 VL
# VH: B1 VH with Y106R, E107H
# B20: X68-E01: single point mutation of M142-H08 (P3); HV-CDR3 GGLLLLFRELKSNYFDY (antibody, V domains shown)
# VL: B1 VL
# VH: B1 VH with W104L, Y106R
# B21: X69-B02: single point mutation of M142-H08 (P1′); HV-CDR3 GGLLLWFRCLKSNYFDY (antibody, V domains shown)
# VL: B1 VL
# VH: B1 VH with Y106R, E107C
# B22: X68-D11: single point mutation of M142-H08 (P3); HV-CDR3 GGLLLKFRELKSNYFDY (antibody, V domains shown)
# VL: B1 VL
# VH: B1 VH with W104K, Y106R
# B23: X68-F12: single point mutation of M142-H08 (P3); HV-CDR3 GGLLLTFRELKSNYFDY (antibody, V domains shown)
# VL: B1 VL
# VH: B1 VH with W104T, Y106R
# B24: X69-D09: single point mutation of M142-H08 (P1′); HV-CDR3 GGLLLWFRGLKSNYFDY (antibody, V domains shown)
# VL: B1 VL
# VH: B1 VH with Y106R, E107G
# B25: X68-E03: single point mutation of M142-H08 (P3); HV-CDR3 GGLLLEFRELKSNYFDY (antibody, V domains shown)
# VL: B1 VL
# VH: B1 VH with W104E, Y106R
# B26: X69-H10: single point mutation of M142-H08 (P1′); HV-CDR3 GGLLLWFRYLKSNYFDY (antibody, V domains shown)
# VL: B1 VL
# VH: B1 VH with Y106R, E107Y
# B27: X69-F01: single point mutation of M142-H08 (P1′); HV-CDR3 GGLLLWFRTLKSNYFDY (antibody, V domains shown)
# VL: B1 VL
# VH: B1 VH with G42S, Y106R, E107T
# B28: X68-E12: single point mutation of M142-H08 (P3); HV-CDR3 GGLLLCFRELKSNYFDY (antibody, V domains shown)
# VL: B1 VL
# VH: B1 VH with W104C, Y106R
# B29: X68-G05: single point mutation of M142-H08 (P3); HV-CDR3 GGLLLSFRELKSNYFDY (antibody, V domains shown)
# VL: B1 VL
# VH: B1 VH with T78I, W104S, Y106R
# Biological target: T1, pKal (Homo sapiens, UniProt P03952)
# T1 construct: two disulfide linked polypeptides; a heavy chain of approximately 52 kDa and a catalytic domain of approximately 34 kDa; host or cells: human plasma
# T1 sequence (P03952 391-638 limits assumed): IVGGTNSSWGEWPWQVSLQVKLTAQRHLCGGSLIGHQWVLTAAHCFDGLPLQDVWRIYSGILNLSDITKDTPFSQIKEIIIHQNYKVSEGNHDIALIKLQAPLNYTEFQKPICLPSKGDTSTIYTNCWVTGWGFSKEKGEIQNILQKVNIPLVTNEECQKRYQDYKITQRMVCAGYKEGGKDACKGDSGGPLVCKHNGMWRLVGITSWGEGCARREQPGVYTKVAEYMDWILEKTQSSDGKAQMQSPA
# T1 sequence (P03952 20-390 partner limits assumed): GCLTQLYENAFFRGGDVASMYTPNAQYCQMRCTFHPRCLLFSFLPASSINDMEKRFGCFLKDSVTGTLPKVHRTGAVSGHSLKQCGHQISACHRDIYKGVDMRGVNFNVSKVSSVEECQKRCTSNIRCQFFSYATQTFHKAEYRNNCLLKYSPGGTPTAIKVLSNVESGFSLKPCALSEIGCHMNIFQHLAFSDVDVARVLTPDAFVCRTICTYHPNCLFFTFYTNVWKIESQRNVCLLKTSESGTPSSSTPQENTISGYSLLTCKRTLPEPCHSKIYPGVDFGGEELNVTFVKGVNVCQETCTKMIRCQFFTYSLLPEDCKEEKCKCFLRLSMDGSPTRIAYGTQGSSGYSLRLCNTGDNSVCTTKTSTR
# Test: Fab fragments (small scale) tested for inhibition against human pKal in an in vitro protease cleavage assay
# Assay type: biochemical
# Settings: Table 9
# Experimental: By DNA sequencing, we recovered 61 of the possible 80 antibodies (Table 9). These antibodies were produced as Fab fragments in small scale (˜20 μg) and tested for inhibition against human pKal in an in vitro protease cleavage assay using Pro-Phe-Arg-aminomethylcoumarin as the synthetic peptide substrate. […] Five antibodies were then expressed in 293T cells and purified by protein A sepharose chromatography. The antibodies were analyzed by SDS-PAGE to determine which of the inhibitory mutants are not cleaved by the host cell protease(s) (data not shown).
row,Inhibit as a Fab?,Molecule
1,No,B1
2,No,B2
3,Yes,B3
4,No,B4
5,Yes,B5
6,No,B6
7,Yes,B7
8,No,B8
9,No,B9
10,No,B10
11,No,B11
12,No,B12
13,Yes,B13
14,Yes,B14
15,No,B15
16,No,B16
17,No,B17
18,Yes,B18
19,No,B19
20,Yes,B20
21,No,B21
22,No,B22
23,No,B23
24,Yes,B24
25,No,B25
26,No,B26
27,Yes,B27
28,No,B28
29,No,B29
